Consider 6 molecules from article PMC6414702, “AtrR Is an Essential Determinant of Azole Resistance in Aspergillus fumigatus”.

The target in data set [1] is T1, AtrR DNA-binding domain (AtrR-DBD) (Aspergillus fumigatus) (UniProt Q4WI89).
T1 sequence: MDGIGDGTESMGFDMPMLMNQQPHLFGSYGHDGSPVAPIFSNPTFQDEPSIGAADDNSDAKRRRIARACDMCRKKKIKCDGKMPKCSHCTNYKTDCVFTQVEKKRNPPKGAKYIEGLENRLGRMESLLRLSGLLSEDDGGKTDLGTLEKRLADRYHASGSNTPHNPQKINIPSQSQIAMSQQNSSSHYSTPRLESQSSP
In words: EMSA. As to conditions: Biotin EMSA: 25 mM Tris-HCl pH 7.5, 80 mM NaCl, 35 mM KCl, 5 mM MgCl2, 10% glycerol, 1 ug poly(dI-dC), 20 ul, 0.1 ug AtrR-DBD, 20 pmol probe, room temperature …. (In EMSA bound probe runs differently from free probe, usually more slowly.)

Data set [2] addresses T2, AtrR DNA-binding domain (AtrR-DBD) (Aspergillus fumigatus, UniProt Q4WI89 1-199).
T2 sequence: T1 sequence
Briefly: competition; 10-fold excess over biotinylated 34-bp probe (12-fold in Methods); Biotin EMSA: 25 mM Tris-HCl pH 7.5, 80 mM NaCl, 35 mM KCl, 5 mM MgCl2, 10% glycerol, 1 ug poly(dI-dC), 20 ul, 0.1 ug AtrR-DBD, 20 pmol probe, room temperature 30 min; 32P EMSA and footprinting as in cited reference 40. As to conditions: protein: recombinant; chain copies: 2; blunt.

For data set [3], the target named is T2, AtrR DNA-binding domain (AtrR-DBD). Briefly: EMSA; 5 mM Mg2+, poly(dI-dC); Biotin EMSA: 25 mM Tris-HCl pH 7.5, 80 mM NaCl, 35 mM KCl, 5 mM MgCl2, 10% glycerol, 1 ug poly(dI-dC), 20 ul, 0.1 ug AtrR-DBD, 20 pmol probe, room temperature 30 min; 32P EMSA and footprinting as in cited reference 40. The following applies: protein: recombinant; chain copies: 2; label: 5' biotin on both strands; blunt.

Changes are numbered by the printed parent chain.

Take “GAAAAAACTCATGAGTGAATAATCGCAGCACCACTCCAGAGTTGTCTAGAATCACGCGGTCCGGATGTGTGCTGAGCCGAATGAAAGTTGCCTAATTACTAAGGTGTAGTTCCAGCATACCATACACCCTAACTCATACTACGGTAGGTAGATCTACTTACCTATGAACCTATATTGGTAGGTAGGTGAATATAAAATACAGCATG (double strand) [cyp51A promoter PCR probe]”: in data set [1], the binding entry is recorded as “binds”.

B1: DM competitor (dsDNA)
DNA 1: GAATCACGCGGTATTGATGTGTGCTGAGTATAAT
DNA 2: ATTATACTCAGCACACATCAATACCGCGTGATTC
Consider B1, for which the binding result in data set [2] is “no binding”.

B2: EcoRI mutant competitor (dsDNA)
DNA 1: GTTGTCTCAGAATCACGCGGTCCGGATGTGGAATTCGCCGAAT
DNA 2: ATTCGGCGAATTCCACATCCGGACCGCGTGATTCTGAGACAAC
As to B2, in data set [2], the binding result is “binds”.

B3: cyp51A 42-bp wild-type competitor (dsDNA)
DNA 1: B2 DNA 1 with G31T, A32G, A33C, T35G, C36A
DNA 2: B2 DNA 2 with G8T, A9C, T11G, T12C, C13A
On to B3, for which the binding result in data set [2] is on record as “binds”.

B4: SphI mutant competitor (dsDNA)
DNA 1: GTTGTCTCAGAATCACGCGGGCATGCTGTGTGCTGAGCCGAAT
DNA 2: ATTCGGCTCAGCACACAGCATGCCCGCGTGATTCTGAGACAAC
With B4, the binding result in data set [2] is given as “no binding”.

B5: cyp51A 34-bp probe (dsDNA)
DNA 1: GAATCACGCGGTCCGGATGTGTGCTGAGCCGAAT
DNA 2: ATTCGGCTCAGCACACATCCGGACCGCGTGATTC
As for B5, in data set [3], the binding result was “binds”.
